Test results taken from IntAct's records for PubMed 14517550.

B1: Caspase Dronc (Drosophila melanogaster (Fruit fly)), Q9XYF4 (parent)
chain: MQPPELEIGMPKRHREHIRKNLNILVEWTNYERLAMECVQQGILTVQMLRNTQDLNGKPFNMDEKDVRVEQHRRLLLKITQRGPTAYNLLINALRNINCLDAAVLLESVDESDSRPPFISLNERRTSRKSADIVDTPSPEASEGPCVSKLRNEPLGALTPYVGVVDGPEVKKSKKIHGGDSAILGTYKMQSRFNRGVLLMVNIMDYPDQNRRRIGAEKDSKSLIHLFQELNFTIFPYGNVNQDQFFKLLTMVTSSSYVQNTECFVMVLMTHGNSVEGKEKVEFCDGSVVDMQKIKDHFQTAKCPYLVNKPKVLMFPFCRGDEYDLGHPKNQGNLMEPVYTAQEEKWPDTQTEGIPSPSTNVPSLADTLVCYANTPGYVTHRDLDTGSWYIQKFCQVMADHAHDTDLEDILKKTSEAVGNKRTKKGSMQTGAYDNLGFNKKLYFNPGFFNE
partner: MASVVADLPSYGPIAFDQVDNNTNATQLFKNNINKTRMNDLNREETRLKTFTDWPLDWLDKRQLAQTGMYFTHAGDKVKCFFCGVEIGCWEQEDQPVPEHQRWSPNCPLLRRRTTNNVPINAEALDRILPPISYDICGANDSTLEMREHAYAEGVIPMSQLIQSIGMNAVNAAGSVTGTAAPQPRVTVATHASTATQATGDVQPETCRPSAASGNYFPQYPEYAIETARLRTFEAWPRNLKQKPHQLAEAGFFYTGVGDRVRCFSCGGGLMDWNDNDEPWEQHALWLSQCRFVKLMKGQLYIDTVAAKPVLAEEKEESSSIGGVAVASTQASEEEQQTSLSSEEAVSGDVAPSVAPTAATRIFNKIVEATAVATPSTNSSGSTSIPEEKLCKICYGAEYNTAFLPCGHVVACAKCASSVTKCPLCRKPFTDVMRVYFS

Variants of: B1
Details: with diap1_drome Diap1, Q24306

| Variant | effect of a mutation on the interaction |
| --- | --- |
| F118E | decreasing interaction |
